# Data taken from patent US20260286408A1, “PROCESS FOR MAKING FLAVANONE DERIVATIVES” (priority 2022, published 2026).
# B1: AthF3H: flavanone-3-hydroxylase (F3H) from Arabidopsis thaliana (GenBank: U33932), expressed in E. coli BL21 (DE3) (protein, UniProt Q9S818 1-358, looked up)
# Naringenin,2-oxoglutarate …: MAPGTLTELAGESKLNSKFVRDEDERPKVAYNVFSDEIPVISLAGIDDVDGKRGEICRQIVEACENWGIFQVVDHGVDTNLVADMTRLARDFFALPPEDKLRFDMSGGKKGGFIVSSHLQGEAVQDWREIVTYFSYPVRNRDYSRWPDKPEGWVKVTEEYSERLMSLACKLLEVLSEAMGLEKESLTNACVDMDQKIVVNYYPKCPQPDLTLGLKRHTDPGTITLLLQDQVGGLQATRDNGKTWITVQPVEGAFVVNLGDHGHFLSNGRFKNADHQAVVNSNSSRLSIATFQNPAPDATVYPLKVREGEKAILEEPITFAEMYKRKMGRDLELARLKKLAKEERDHKEVDKPVDQIFA
# Experiment: Biotransformation of flavanones with whole cells of E. coli BL21 (DE3)-AthF3H
# Type: biochemical
# Conditions: whole cells OD10, 1 g/L substrate, pH 7, 30° C., 2 h, all substrates
# Protocol: The gene (GenBank: U33932) encoding the flavanone-3-hydroxylase (F3H) from Arabidopsis thaliana was ordered codon-optimized for E. coli. E. coli BL21 (DE3) was transformed with the resulting construct. For the precultures LB medium containing kanamycin (50 μg/mL) was inoculated with E. coli BL21 (DE3) strains harboring the constructs and incubated at 37° C. and 200 rpm over-night. The preculture was used to inoculate the main culture of 400 mL LB medium containing kanamycin (50 μg/mL), which was incubated at 37° C. until the optical density at 600 nm (OD600) reached approximately 0.8. Expression of AthF3H was induced by 0.1 mM IPTG (isopropyl-D-thiogalactopyranoside) and the cultures were shaken at 20-25° C. for 20 h. The cells were harvested by centrifugation, and then resuspended in 100 mM potassium phosphate buffer (KPi, pH 7) to an OD of 50.
# Biotransformations were carried out with whole cells of E. coli BL21 (DE3)-AthF3H at OD10 in a total volume of 1 mL in 100 mM potassium phosphate buffer (KPi, pH 7) containing 10% DMSO, 1 g/L of eriodictyol, hesperetin, homoeriodictyol, pinocembrin, liquiritigenin or 5-deoxyeriodictyol, 10 mM α-ketoglutarate, 10 mM ascorbic acid and 0.25 mM FeSO4 at 30° C. and 1000 rpm for 2 h. […]
molecule,measurement,value
B1,conversion of flavanone substrates by F3H,full conversion of the available (S)-enantiomer
